Patent publication US20050266469A1, “Alternatively spliced isoforms of checkpoint kinase 1 (CHK1)” (priority 2004, published 2005)

T1: reference CHK1 (Homo sapiens, UniProt O14757)
T1 sequence (O14757 1-476): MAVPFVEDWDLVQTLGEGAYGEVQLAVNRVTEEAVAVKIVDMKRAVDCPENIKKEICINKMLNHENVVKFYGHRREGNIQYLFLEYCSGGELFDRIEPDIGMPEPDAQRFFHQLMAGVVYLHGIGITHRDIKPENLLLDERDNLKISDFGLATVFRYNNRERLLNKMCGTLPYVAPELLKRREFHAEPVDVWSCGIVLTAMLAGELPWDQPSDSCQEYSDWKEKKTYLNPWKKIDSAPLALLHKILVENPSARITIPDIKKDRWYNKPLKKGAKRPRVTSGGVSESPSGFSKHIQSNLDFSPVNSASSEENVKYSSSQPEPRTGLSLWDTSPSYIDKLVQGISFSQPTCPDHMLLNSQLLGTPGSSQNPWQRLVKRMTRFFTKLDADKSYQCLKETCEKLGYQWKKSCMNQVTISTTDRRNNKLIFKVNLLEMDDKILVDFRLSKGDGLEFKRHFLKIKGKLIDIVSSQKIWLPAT

T2: CHK1sv1 (Homo sapiens, UniProt O14757)
T2 construct: made in house; host or cells: SF9 insect cells (baculovirus, pVL1393 transfer vector)
T2 sequence (O14757 with tags, fused parts or gaps): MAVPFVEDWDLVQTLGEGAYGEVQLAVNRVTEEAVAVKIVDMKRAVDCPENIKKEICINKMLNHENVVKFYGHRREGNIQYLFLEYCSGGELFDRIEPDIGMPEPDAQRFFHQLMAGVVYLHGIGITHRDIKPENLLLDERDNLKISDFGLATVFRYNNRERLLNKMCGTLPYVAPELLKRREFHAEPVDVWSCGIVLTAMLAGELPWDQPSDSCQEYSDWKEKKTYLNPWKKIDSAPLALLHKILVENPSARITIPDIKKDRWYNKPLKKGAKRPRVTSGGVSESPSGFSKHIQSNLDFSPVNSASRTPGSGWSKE

B1: CHK1: human checkpoint kinase 1 reference protein (protein, UniProt O14757 1-476, looked up)
Serine/threonine-protein …: MAVPFVEDWDLVQTLGEGAYGEVQLAVNRVTEEAVAVKIVDMKRAVDCPENIKKEICINKMLNHENVVKFYGHRREGNIQYLFLEYCSGGELFDRIEPDIGMPEPDAQRFFHQLMAGVVYLHGIGITHRDIKPENLLLDERDNLKISDFGLATVFRYNNRERLLNKMCGTLPYVAPELLKRREFHAEPVDVWSCGIVLTAMLAGELPWDQPSDSCQEYSDWKEKKTYLNPWKKIDSAPLALLHKILVENPSARITIPDIKKDRWYNKPLKKGAKRPRVTSGGVSESPSGFSKHIQSNLDFSPVNSASSEENVKYSSSQPEPRTGLSLWDTSPSYIDKLVQGISFSQPTCPDHMLLNSQLLGTPGSSQNPWQRLVKRMTRFFTKLDADKSYQCLKETCEKLGYQWKKSCMNQVTISTTDRRNNKLIFKVNLLEMDDKILVDFRLSKGDGLEFKRHFLKIKGKLIDIVSSQKIWLPAT
B2: CHK1sv1: splice variant isoform of human CHK1 protein, exon 9 spliced to exon 11, expressed in SF9 insect cells (protein, listed as Homo sapiens)
chain: MAVPFVEDWDLVQTLGEGAYGEVQLAVNRVTEEAVAVKIVDMKRAVDCPENIKKEICINKMLNHENVVKFYGHRREGNIQYLFLEYCSGGELFDRIEPDIGMPEPDAQRFFHQLMAGVVYLHGIGITHRDIKPENLLLDERDNLKISDFGLATVFRYNNRERLLNKMCGTLPYVAPELLKRREFHAEPVDVWSCGIVLTAMLAGELPWDQPSDSCQEYSDWKEKKTYLNPWKKIDSAPLALLHKILVENPSARITIPDIKKDRWYNKPLKKGAKRPRVTSGGVSESPSGFSKHIQSNLDFSPVNSASRTPGSGWSKE

How the values were obtained:
reference CHK1 = target: T1, reference CHK1; details: previously described (O'Neill et al., 2002; Jackson et al., 2000); cited from earlier work
CHK1sv1 = target: T2, CHK1sv1; test: CHK1sv1 kinase assay (Homogenous Time-Resolved Fluorescence, synthetic peptide substrate); assay type: biochemical; details: phospho-peptide product per microgram of CHK1sv1; ATP and CDC25C peptide substrate at saturating concentrations
Protocol: CHK1sv1 activity was assayed in vitro using a synthetic peptide substrate. The phophopeptide product was quantitated using a Homogenous Time-Resolved Fluorescence assay system (Park et al., 1999, Anal. Biochem. 269:94-104). The reaction mixture contained 40 mM HEPES, pH 7.3; 100 mM NaCl; 10 mM MgCl2; 2 mM dithiothreitol; 0.1% BSA; 0.1 mM ATP; 0.5 μM peptide substrate; and 0.1 nM CHK1sv1 enzyme in a final volume of 40 μl. […] The kinase reaction was incubated for 30 minutes at 22° C., and then terminated with 60 μl Stop/Detection Buffer (40 mM HEPES, pH 7.3; 10 mM EDTA; 0.125% Triton X-100; 1.25% BSA; 250 nM PhycoLink Streptavidin-Allophycocyanin (APC) Conjugate (Prozyme, San Leandro, Calif.); and […] Europium-chelate labeled anti-phosphotyrosine antibody (PY20, Perkin Elmer, Boston, Mass.)). The reaction was allowed to equilibrate for 2 hours at 22° C., and relative fluorescent units were read on a Discovery plate reader (Packard Biosciences). ATP Km was determined by varying ATP concentration from 0.003 to 3 mM in the reaction described above and determining the relative enzymatic rates. […] CHK1sv1 Vmax was calculated by determining the amount of phospho-peptide product formed per microgram of CHKsv1 when both ATP and CDC25C peptide substrate are at saturating concentrations.

| Molecule | Vmax (reference CHK1) [nmol/min/µg] | Vmax (CHK1sv1) [nmol/min/µg] |
| --- | --- | --- |
| B1 | 0.6 |  |
| B2 |  | 36 |
